Reference: paper doi:10.1101/2022.05.02.490369

Biological target: RPP1^TIR (residue 83-254) (Arabidopsis) (UniProt F4J339)
Assay: crystal structure

stoichiometry N: 4
Substance: RPP1^TIR (residue 83-254) (from UniProt F4J339 83-254) (domain or fragment)
